Here are results for four molecules from publication doi:10.1101/2022.01.14.473406.

Series [1] addresses AP-Endonuclease 1 (APE1) (human) (UniProt P27695). Kind of series: SPR. On the technique in general: Surface plasmon resonance follows binding to a sensor surface in real time, without labels.
Series [2] has as its target T1, DNA ligase I EE/AA (C-terminal, delta261) (Homo sapiens, UniProt P18858 262-919, E346A;E592A). Kind of series: X-ray crystallography.
Series [3] addresses T1, DNA ligase I EE/AA (C-terminal, …). The series can be described thus: X-ray crystallography. The source holds these as a separate data set.

Like-named read-outs stand apart in the source and are kept apart here.

T1 sequence (P18858 262-919 E346A/E592A): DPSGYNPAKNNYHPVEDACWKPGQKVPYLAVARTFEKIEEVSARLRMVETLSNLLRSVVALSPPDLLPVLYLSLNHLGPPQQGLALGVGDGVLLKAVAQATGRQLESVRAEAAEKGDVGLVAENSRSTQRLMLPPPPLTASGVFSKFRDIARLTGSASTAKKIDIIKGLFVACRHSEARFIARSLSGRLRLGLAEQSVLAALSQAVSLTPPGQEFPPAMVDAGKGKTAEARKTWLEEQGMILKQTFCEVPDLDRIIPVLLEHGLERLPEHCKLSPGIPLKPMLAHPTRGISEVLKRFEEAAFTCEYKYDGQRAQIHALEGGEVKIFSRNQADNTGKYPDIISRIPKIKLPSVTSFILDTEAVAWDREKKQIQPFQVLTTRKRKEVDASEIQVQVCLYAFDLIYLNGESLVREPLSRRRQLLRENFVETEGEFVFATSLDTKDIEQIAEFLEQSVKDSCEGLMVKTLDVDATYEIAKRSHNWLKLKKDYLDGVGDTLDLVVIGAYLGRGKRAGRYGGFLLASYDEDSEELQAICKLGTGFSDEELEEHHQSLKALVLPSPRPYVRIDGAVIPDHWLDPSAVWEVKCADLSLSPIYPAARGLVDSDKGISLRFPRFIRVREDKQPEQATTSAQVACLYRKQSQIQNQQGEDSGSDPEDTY
Sequence of AP-Endonuclease 1 (APE1) (human) (P27695 whole entry): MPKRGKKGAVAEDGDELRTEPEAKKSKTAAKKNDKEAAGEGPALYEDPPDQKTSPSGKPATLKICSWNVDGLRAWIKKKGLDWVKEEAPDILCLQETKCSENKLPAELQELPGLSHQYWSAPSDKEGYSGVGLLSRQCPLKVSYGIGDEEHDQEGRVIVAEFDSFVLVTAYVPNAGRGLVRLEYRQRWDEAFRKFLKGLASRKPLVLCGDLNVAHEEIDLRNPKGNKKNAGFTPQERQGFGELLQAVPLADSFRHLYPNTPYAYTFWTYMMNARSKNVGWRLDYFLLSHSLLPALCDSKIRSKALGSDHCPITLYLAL

Usually Kd stands for a measure of binding affinity in units of concentration. A higher Kd goes with lower affinity. Molecule “DNA ligase I (LIG1) (from UniProt P18858 1-919) (enzyme)” yielded an equilibrium dissociation constant (Kd) in series [1] of 117 nM.

B1: nick DNA 3'-dA:T (dsDNA)
DNA 1: GCTGATGCGTA
DNA 2: GTCGGAC
DNA 3: GTCCGACTACGCATCAGC
modifications: 5'-phosphate on downstream strand; 5'-adenylated (DNA-AMP) in crystal
With B1, the binding result in series [2] is recorded as “binds”.

B2: nick DNA 3'-dG:T (dsDNA)
DNA 1: GCTGATGCGTG
DNA 2: GTCGGAC
DNA 3: GTCCGACTACGCATCAGC
modifications: 5'-phosphate on downstream strand; 5'-adenylated (DNA-AMP) in crystal
Turning to B2, in series [2], the binding result is on record as “binds”.

B3: nick DNA 3'-dA:C (dsDNA)
DNA 1: GCTGATGCGTA
DNA 2: GTCGGAC
DNA 3: GTCCGACCACGCATCAGC
modifications: 5'-phosphate on downstream strand
Turning to B3, the binding result in series [3] is given as “binds”.
